Reference: PMC6891851 (ACS Central Science, 2019)
Square brackets hold non-standard residues; d marks the D form.

Biological target: the molecule itself
Assay: hydrogelation with CD, TEM and rheology

B1: AcVES3 peptide hydrogel (peptide)
peptide: Ac-VEVSVSVEV[dP]PTEVSVEVEV-NH2
SMILES: CC(=O)N[C@H](C(=O)N[C@@H](CCC(=O)O)C(=O)N[C@H](C(=O)N[C@@H](CO)C(=O)N[C@H](C(=O)N[C@@H](CO)C(=O)N[C@H](C(=O)N[C@@H](CCC(=O)O)C(=O)N[C@H](C(=O)N1CCC[C@@H]1C(=O)N1CCC[C@H]1C(=O)N[C@H](C(=O)N[C@@H](CCC(=O)O)C(=O)N[C@H](C(=O)N[C@@H](CO)C(=O)N[C@H](C(=O)N[C@@H](CCC(=O)O)C(=O)N[C@H](C(=O)N[C@@H](CCC(=O)O)C(=O)N[C@H](C(N)=O)C(C)C)C(C)C)C(C)C)C(C)C)[C@@H](C)O)C(C)C)C(C)C)C(C)C)C(C)C)C(C)C
Question: Does B1 bind?
Answer: Result: binds
